Drawing on publication PMC6090299, “Quantitative Analysis of Interaction Between CADM1 and Its Binding Cell-Surface Proteins Using Surface Plasmon Resonance Imaging” (Frontiers in Cell and Developmental Biology, 2018), this text covers Kd, koff and kon for 1 molecule.

As usually defined, the Kd is the concentration at which binding is half-saturated. A higher Kd goes with lower affinity. For orientation: koff means the first-order rate constant of dissociation. A lower koff goes with slow dissociation. What is called kon is the second-order rate constant of association.

The target of this assay is T1, CADM1-Fc (human (by the printed RefSeq entry), UniProt Q9BY67-1 45-374).
T1 construct: signal peptide in the construct; CADM1 extracellular domain, NP_055148, 1-374 a.a; Human IgG2-Fc fragment from pFUSE-hIgG2-Fc1; Glycosylated; also called cell adhesion molecule 1 extracellular domain fused with Fc; source: FreeStyle 293-F cells, transiently transfected, purified from the supernatant (Protein G Sepharose); not shown: Fc (human IgG2), C-terminal, kept
T1 sequence (looked up): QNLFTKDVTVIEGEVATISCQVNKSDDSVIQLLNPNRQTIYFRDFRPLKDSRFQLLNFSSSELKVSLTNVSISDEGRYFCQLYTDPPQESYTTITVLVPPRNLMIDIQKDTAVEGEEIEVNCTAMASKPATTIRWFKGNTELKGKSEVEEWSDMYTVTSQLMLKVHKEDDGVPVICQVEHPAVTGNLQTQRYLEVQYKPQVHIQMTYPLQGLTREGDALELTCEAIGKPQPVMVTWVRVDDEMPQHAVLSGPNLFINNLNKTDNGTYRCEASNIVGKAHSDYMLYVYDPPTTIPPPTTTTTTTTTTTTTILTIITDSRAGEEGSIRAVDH
Kind of assay: SPR; SPR imaging (OpenPlex); the 10 IgSF-Fc proteins (7-24 μM) spotted in hexaplicate and immobilised by amine coupling; 2.4 μM CADM1-Fc injected for 4 min; 25°C; PBS with 0.2% BSA and 0.02% Tween20, 50 μL/min; signal of normal human IgG subtracted. The conditions noted are these: both partners purified. (Surface plasmon resonance follows binding to a sensor surface in real time, without labels.)

B1: CRTAM-Fc (Fc fusion, human (by the printed RefSeq entry), UniProt O95727-1 18-287, looked up)
chain: SLTNHTETITVEEGQTLTLKCVTSLRKNSSLQWLTPSGFTIFLNEYPALKNSKYQLLHHSANQLSITVPNVTLQDEGVYKCLHYSDSVSTKEVKVIVLATPFKPILEASVIRKQNGEEHVVLMCSTMRSKPPPQITWLLGNSMEVSGGTLHEFETDGKKCNTTSTLIIHTYGKNSTVDCIIRHRGLQGRKLVAPFRFEDLVTDEETASDALERNSLSSQDPQQPTSTVSVTEDSSTSEIDKEEKEQTTQDPDLTTEANPQYLGLARKKSG
notes: signal peptide in the construct; CRTAM extracellular domain, NP_062550, 1-287 a.a; Human IgG2-Fc fragment from pFUSE-hIgG2-Fc1; also called class-I MHC-restricted T-cell-associated molecule; source: FreeStyle 293-F cells, transiently transfected, purified from the supernatant (Protein G Sepharose); not shown: Fc (human IgG2), C-terminal, kept
In turn, B1 returned a Kd of 3.3 nM, a koff of 0.00011 s⁻¹ and an association rate constant (kon) of 31000 M⁻¹ s⁻¹.
